Measured values as given in patent US20030036631.

B1: JAK3 kinase (protein)
chain: MAPPSEETPLIPQRSCSLLSTEAGALHVLLPARGPGPPQRLSFSFGDHLAEDLCVQAAKASGILPVYHSLFALATEDLSCWFPPSHIFSVEDASTQVLLYRIRFYFPNWFGLEKCHRFGLRKDLASAILDLPVLEHLFAQHRSDLVSGRLPVGLSLKEQGECLSLAVLDLARMAREQAQRPGELLKTVSYKACLPPSLRDLIQGLSFVTRRRIRRTVRRALRRVAACQADRHSLMAKYIMDLERLDPAGAAETFHVGLPGALGGHDGLGLLRVAGDGGIAWTQGEQEVLQPFCDFPEIVDISIKQAPRVGPAGEHRLVTVTRTDNQILEAEFPGLPEALSFVALVDGYFRLTTDSQHFFCKEVAPPRLLEEVAEQCHGPITLDFAINKLKTGGSRPGSYVLRRSPQDFDSFLLTVCVQNPLGPDYKGCLIRRSPTGTFLLVGLSRPHSSLRELLATCWDGGLHVDGVAVTLTSCCIPRPKEKSNLIVVQRGHSPPTSSLVQPQSQYQLSQMTFHKIPADSLEWHENLGHGSFTKIYRGCRHEVVDGEARKTEVLLKVMDAKHKNCMESFLEAASLMSQVSYRHLVLLHGVCMAGDSTMVQEFVHLGAIDMYLRKRGHLVPASWKLQVVKQLAYALNYLEDKGLPHGNVSARKVLLAREGADGSPPFIKLSDPGVSPAVLSLEMLTDRIPWVAPECLREAQTLSLEADKWGFGATVWEVFSGVTMPISALDPAKKLQFYEDRQQLPAPKWTELALLIQQCMAYEPVQRPSFRAVIRDLNSLISSDYELLSDPTPGALAPRDGLWNGAQLYACQDPTIFEERHLKYISQLGKGNFGSVELCRYDPLGDNTGALVAVKQLQHSGPDQQRDFQREIQILKALHSDFIVKYRGVSYGPGRQSLRLVMEYLPSGCLRDFLQRHRARLDASRLLLYSSQICKGMEYLGSRRCVHRDLAARNILVESEAHVKIADFGLAKLLPLDKDYYVVREPGQSPIFWYAPESLSDNIFSRQSDVWSFGVVLYELFTYCDKSCSPSAEFLRMMGCERDVPALCRLLELLEEGQRLPAPPACPAEVHELMKLCWAPSPQDRPSFSALGPQLDMLWSGSRGCETHAFTAHPEGKHHSLSFS
B2: emt kinase (protein)
chain: MNNFILLEEQLIKKSQQKRRTSPSNFKVRFFVLTKASLAYFEDRHGKKRTLKGSIELSRIKCVEIVKSDISIPCHYKYPFQVVHDNYLLYVFAPDRESRQRWVLALKEETRNNNSLVPKYHPNFWMDGKWRCCSQLEKLATGCAQYDPTKNASKKPLPPTPEDNRRPLWEPEETVVIALYDYQTNDPQELALRRNEEYCLLDSSEIHWWRVQDRNGHEGYVPSSYLVEKSPNNLETYEWYNKSISRDKAEKLLLDTGKEGAFMVRDSRTAGTYTVSVFTKAVVSENNPCIKHYHIKETNDNPKRYYVAEKYVFDSIPLLINYHQHNGGGLVTRLRYPVCFGRQKAPVTAGLRYGKWVIDPSELTFVQEIGSGQFGLVHLGYWLNKDKVAIKTIREGAMSEEDFIEEAEVMMKLSHPKLVQLYGVCLEQAPICLVFEFMEHGCLSDYLRTQRGLFAAETLLGMCLDVCEGMAYLEEACVIHRDLAARNCLVGENQVIKVSDFGMTRFVLDDQYTSSTGTKFPVKWASPEVFSFSRYSSKSDVWSFGVLMWEVFSEGKIPYENRSNSEVVEDISTGFRLYKPRLASTHVYQIMNHCWKERPEDRPAFSRLLRQLAEIAESGL
B3: ZAP70 kinase (protein)
chain: MPDPAAHLPFFYGSISRAEAEEHLKLAGMADGLFLLRQCLRSLGGYVLSLVHDVRFHHFPIERQLNGTYAIAGGKAHCGPAELCEFYSRDPDGLPCNLRKPCNRPSGLEPQPGVFDCLRDAMVRDYVRQTWKLEGEALEQAIISQAPQVEKLIATTAHERMPWYHSSLTREEAERKLYSGAQTDGKFLLRPRKEQGTYALSLIYGKTVYHYLISQDKAGKYCIPEGTKFDTLWQLVEYLKLKADGLIYCLKEACPNSSASNASGAAAPTLPAHPSTLTHPQRRIDTLNSDGYTPEPARITSPDKPRPMPMDTSVYESPYSDPEELKDKKLFLKRDNLLIADIELGCGNFGSVRQGVYRMRKKQIDVAIKVLKQGTEKADTEEMMREAQIMHQLDNPYIVRLIGVCQAEALMLVMEMAGGGPLHKFLVGKREEIPVSNVAELLHQVSMGMKYLEEKNFVHRDLAARNVLLVNRHYAKISDFGLSKALGADDSYYTARSAGKWPLKWYAPECINFRKFSSRSDVWSYGVTMWEALSYGQKPYKKMKGPEVMAFIEQGKRMECPPECPPELYALMSDCWIYKWEDRPDFLTVEQRMRACYYSLASKVEGPPGSTQKAEAACA

Columns and labels:
[1] = target: GST-L3cyto-Y667F
[2] = target: GST-SiglecBMSL3cyto (wildtype)
[3] = target: L3cyto-Y691F
[4] = target: GST-L3cyto-Y641alone

| Protein | Decrease in Wild type Phosphorylation [1] [%] | phosphorylation of wildtype GST-SIGLECBMS-L3cyto (kinase ELISA, anti p-Tyr HRP) [2] | Decrease in Wild type Phosphorylation [3] [%] | Decrease in Wild type Phosphorylation [4] [%] |
| --- | --- | --- | --- | --- |
| B1 | 50 | JAK3 (92%) | 25 |  |
| B2 | 70 | emt(65%) |  |  |
| B3 | 100 | ZAP70 (20%) |  | 20 |
